In the experiment the target is Low-density lipoprotein receptor-related protein 1 (LRP1) (mouse (endogenous in gonadal fat tissue)).

B1: Apolipoprotein A4 (APOA4) in gonadal fat tissue of WT mice injected with recombinant mouse APOA4 (natural protein)
chain: EVTSDQVANVVWDYFTQLSNNAKEAVEQFQKTDVTQQLSTLFQDKLGDASTYADGVHNKLVPFVVQLSGHLAQETERVKEEIKKELEDLRDRMMPHANKVTQTFGENMQKLQEHLKPYAVDLQDQINTQTQEMKLQLTPYIQRMQTTIKENVDNLHTSMMPLATNLKDKFNRNMEELKGHLTPRANELKATIDQNLEDLRRSLAPLTVGVQEKLNHQMEGLAFQMKKNAEELQTKVSAKIDQLQKNLAPLVEDVQSKVKGNTEGLQKSLEDLNRQLEQQVEEFRRTVEPMGEMFNKALVQQLEQFRQQLGPNSGEVESHLSFLEKSLREKVNSFMSTLEKKGSPDQPQALPLPEQAQEQAQEQAQEQVQPKPLES
In turn, B1 returned a glucose uptake in 3T3-L1 mature adipocytes treated with 0, 0.5, 1, 2 uM r-m-APOA4 for 1 h; percent increase against buffer (~22% at 0.5 uM, ~34% at 1 uM, ~44% at 2 uM) of 44%.

(Values after publication PMC8225859.)
